# Target: recombinant prefusion F protein of RSV (rpF5), ectodomain fused with a T4 fibritin foldon trimerization domain (respiratory syncytial virus, subgroup A2 | bacteriophage T4) (UniProt P03420)
# Experiment: SDS-PAGE under reducing and non-reducing conditions; 10% gel, Coomassie blue staining; band of approximately 195 kDa under non-reducing and approximately 65 kDa under reducing conditions
substance,measurement,value
"recombinant prefusion F protein of RSV (rpF5), ectodomain fused with a T4 fibritin foldon trimerization domain (from UniProt P03420 26-513) (domain or fragment)",stoichiometry N,3

# From paper PMC12737591
